From IntAct's records for PubMed 15292222

B1: Protein phosphatase 1 regulatory subunit 12A (Homo sapiens), O14974 (parent)
chain: MKMADAKQKRNEQLKRWIGSETDLEPPVVKRQKTKVKFDDGAVFLAACSSGDTDEVLKLLHRGADINYANVDGLTALHQACIDDNVDMVKFLVENGANINQPDNEGWIPLHAAASCGYLDIAEFLIGQGAHVGAVNSEGDTPLDIAEEEAMEELLQNEVNRQGVDIEAARKEEERIMLRDARQWLNSGHINDVRHAKSGGTALHVAAAKGYTEVLKLLIQAGYDVNIKDYDGWTPLHAAAHWGKEEACRILVDNLCDMEMVNKVGQTAFDVADEDILGYLEELQKKQNLLHSEKRDKKSPLIESTANMDNNQSQKTFKNKETLIIEPEKNASRIESLEQEKVDEEEEGKKDESSCSSEEDEEDDSESEAETDKTKPLASVTNANTSSTQAAPVAVTTPTVSSGQATPTSPIKKFPTTATKISPKEEERKDESPATWRLGLRKTGSYGALAEITASKEGQKEKDTAGVTRSASSPRLSSSLDNKEKEKDSKGTRLAYVAPTIPRRLASTSDIEEKENRDSSSLRTSSSYTRRKWEDDLKKNSSVNEGSTYHKSCSFGRRQDDLISSSVPSTTSTPTVTSAAGLQKSLLSSTSTTTKITTGSSSAGTQSSTSNRLWAEDSTEKEKDSVPTAVTIPVAPTVVNAAASTTTLTTTTAGTVSSTTEVRERRRSYLTPVRDEESESQRKARSRQARQSRRSTQGVTLTDLQEAEKTIGRSRSTRTREQENEEKEKEEKEKQDKEKQEEKKESETSREDEYKQKYSRTYDETYQRYRPVSTSSSTTPSSSLSTMSSSLYASSQLNRPNSLVGITSAYSRGITKENEREGEKREEEKEGEDKSQPKSIRERRRPREKRRSTGVSFWTQDSDENEQEQQSDTEEGSNKKETQTDSISRYETSSTSAGDRYDSLLGRSGSYSYLEERKPYSSRLEKDDSTDFKKLYEQILAENEKLKAQLHDTNMELTDLKLQLEKATQRQERFADRSLLEMEKRERRALERRISEMEEELKMLPDLKADNQRLKDENGALIRVISKLSK

Variants of: B1
Conditions: with dapk3_human DAPK3, O43293
Sequence of dapk3_human DAPK3, O43293 (O43293 whole entry, looked up): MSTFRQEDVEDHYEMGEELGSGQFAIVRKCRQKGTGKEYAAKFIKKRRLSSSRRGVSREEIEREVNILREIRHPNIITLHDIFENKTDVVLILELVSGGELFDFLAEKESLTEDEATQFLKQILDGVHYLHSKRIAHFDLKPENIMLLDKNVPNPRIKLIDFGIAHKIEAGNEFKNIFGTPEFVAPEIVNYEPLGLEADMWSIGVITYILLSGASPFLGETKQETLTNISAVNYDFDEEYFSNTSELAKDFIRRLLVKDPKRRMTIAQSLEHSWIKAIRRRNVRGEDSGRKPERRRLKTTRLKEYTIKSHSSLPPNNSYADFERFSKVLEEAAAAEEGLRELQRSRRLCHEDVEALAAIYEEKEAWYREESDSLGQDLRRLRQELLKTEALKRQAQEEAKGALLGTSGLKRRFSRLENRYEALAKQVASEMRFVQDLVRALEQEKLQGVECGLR

**Q.** Which “effect of a mutation on the interaction” value does the source give for L1007A;L1014A;L1021A;L1028A here?
**A.** disrupting interaction
